Source: PMC4861432, “Naturally Occurring Isoleucyl-tRNA Synthetase without tRNA-dependent Pre-transfer Editing” (The Journal of Biological Chemistry, 2016)

Columns and labels:
ScIleRS = molecular target: T1, ScIleRS (Saccharomyces cerevisiae, UniProt P09436); experiment: ATP-PPi exchange inhibition, global fit; assay type: biochemical
T1 construct: gene ILS1; pET28b, E. coli Rosetta(DE3), Ni-NTA (His tag) and size-exclusion chromatography, monomer
T1 sequence (P09436 1-1072): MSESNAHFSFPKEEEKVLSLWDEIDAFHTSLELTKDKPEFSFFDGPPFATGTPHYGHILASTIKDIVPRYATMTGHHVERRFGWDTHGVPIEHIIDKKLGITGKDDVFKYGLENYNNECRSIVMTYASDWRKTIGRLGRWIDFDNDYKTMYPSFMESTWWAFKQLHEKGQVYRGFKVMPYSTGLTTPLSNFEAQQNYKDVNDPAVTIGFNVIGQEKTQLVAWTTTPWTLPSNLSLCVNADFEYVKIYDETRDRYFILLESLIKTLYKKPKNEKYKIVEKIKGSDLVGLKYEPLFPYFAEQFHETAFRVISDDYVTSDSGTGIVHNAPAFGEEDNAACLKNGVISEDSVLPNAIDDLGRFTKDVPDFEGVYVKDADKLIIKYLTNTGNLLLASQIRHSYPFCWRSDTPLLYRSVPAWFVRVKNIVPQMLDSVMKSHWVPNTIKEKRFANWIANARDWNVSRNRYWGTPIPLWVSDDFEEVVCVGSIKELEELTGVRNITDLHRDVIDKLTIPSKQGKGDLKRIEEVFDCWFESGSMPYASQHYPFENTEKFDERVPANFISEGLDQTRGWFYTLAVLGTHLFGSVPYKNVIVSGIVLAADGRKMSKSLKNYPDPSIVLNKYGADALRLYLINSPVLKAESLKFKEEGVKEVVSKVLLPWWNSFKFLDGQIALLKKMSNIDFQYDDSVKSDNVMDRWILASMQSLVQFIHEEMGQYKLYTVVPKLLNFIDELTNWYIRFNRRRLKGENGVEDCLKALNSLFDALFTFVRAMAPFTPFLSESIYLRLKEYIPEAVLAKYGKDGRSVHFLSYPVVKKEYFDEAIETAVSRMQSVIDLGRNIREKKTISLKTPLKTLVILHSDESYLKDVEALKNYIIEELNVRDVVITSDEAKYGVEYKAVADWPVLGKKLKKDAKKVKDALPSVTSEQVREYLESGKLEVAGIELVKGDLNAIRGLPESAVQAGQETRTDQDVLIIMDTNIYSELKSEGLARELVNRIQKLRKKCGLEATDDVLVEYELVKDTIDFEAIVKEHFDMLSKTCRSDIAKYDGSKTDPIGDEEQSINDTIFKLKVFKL

SgIleRS = molecular target: T2, SgIleRS (Streptomyces griseus, UniProt B1W0J8); experiment: ATP-PPi exchange inhibition, global fit; assay type: biochemical
T2 construct: gene ileS; ileS from genomic DNA in pET28b, E. coli BL21(DE3), Ni-NTA purified (His tag), ZnCl2 added during growth
T2 sequence (B1W0J8 1-1047): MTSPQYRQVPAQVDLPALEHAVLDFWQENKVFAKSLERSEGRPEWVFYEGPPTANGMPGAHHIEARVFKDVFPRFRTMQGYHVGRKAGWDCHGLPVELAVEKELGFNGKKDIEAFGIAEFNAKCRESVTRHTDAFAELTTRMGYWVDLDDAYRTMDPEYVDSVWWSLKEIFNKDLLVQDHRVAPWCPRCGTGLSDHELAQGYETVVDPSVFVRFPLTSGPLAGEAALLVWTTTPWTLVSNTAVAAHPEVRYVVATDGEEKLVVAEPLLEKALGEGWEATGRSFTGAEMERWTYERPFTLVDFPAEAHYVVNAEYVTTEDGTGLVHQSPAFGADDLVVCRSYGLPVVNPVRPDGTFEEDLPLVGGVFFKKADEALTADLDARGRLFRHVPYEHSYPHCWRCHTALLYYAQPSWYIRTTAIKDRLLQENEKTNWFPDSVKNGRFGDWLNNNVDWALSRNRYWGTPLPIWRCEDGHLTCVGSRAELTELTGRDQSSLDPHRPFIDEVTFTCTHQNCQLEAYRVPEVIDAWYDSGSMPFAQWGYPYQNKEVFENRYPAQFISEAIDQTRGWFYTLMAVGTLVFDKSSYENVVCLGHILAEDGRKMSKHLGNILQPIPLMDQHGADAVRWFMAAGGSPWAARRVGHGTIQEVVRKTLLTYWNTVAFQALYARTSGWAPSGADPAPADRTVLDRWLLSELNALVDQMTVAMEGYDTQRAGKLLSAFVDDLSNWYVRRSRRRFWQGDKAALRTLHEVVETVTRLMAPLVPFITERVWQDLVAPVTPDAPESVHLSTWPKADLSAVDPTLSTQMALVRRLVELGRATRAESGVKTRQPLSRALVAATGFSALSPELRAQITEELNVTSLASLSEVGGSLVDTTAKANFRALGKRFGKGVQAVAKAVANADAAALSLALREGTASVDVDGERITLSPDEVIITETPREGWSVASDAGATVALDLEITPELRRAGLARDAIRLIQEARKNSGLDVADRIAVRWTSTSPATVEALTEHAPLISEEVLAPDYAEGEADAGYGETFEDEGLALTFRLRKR

[1] = substrate: CC(C)[C@H](N)C(=O)O; experiment: ATP-PPi exchange (amino acid activation); assay type: biochemical, Streptomyces griseus; conditions: 30 °C, pH 7.5, 4 mM ATP, 1 mM PPi, 20 mM MgCl2, no tRNA
From the text: (§1) ATP-PPi exchange (amino acid activation) on SgIleRS

[2] = substrate: CC[C@H](C)[C@H](N)C(=O)O; experiment: ATP-PPi exchange (amino acid activation); assay type: biochemical, Streptomyces griseus; conditions: 30 °C, pH 7.5, 4 mM ATP, 1 mM PPi, 20 mM MgCl2, no tRNA
From the text: as §1

[3] = substrate: CC(C)[C@H](N)C(=O)O; experiment: ATP-PPi exchange (amino acid activation); assay type: biochemical, Saccharomyces cerevisiae; conditions: 30 °C, pH 7.5, 4 mM ATP, 1 mM PPi, 20 mM MgCl2, no tRNA
From the text: (§2) ATP-PPi exchange (amino acid activation) on ScIleRS

[4] = substrate: CC[C@H](C)[C@H](N)C(=O)O; experiment: ATP-PPi exchange (amino acid activation); assay type: biochemical, Saccharomyces cerevisiae; conditions: 30 °C, pH 7.5, 4 mM ATP, 1 mM PPi, 20 mM MgCl2, no tRNA
From the text: as §2

C/C(=C\C(=O)OCCCCCCCCC(=O)O)C[C@@H]1OC[C@H](C[C@@H]2O[C@H]2[C@@H](C)[C@H](C)O)[C@@H](O)[C@H]1O [mupirocin]
Ki (ScIleRS): 0.028 mM
Ki (SgIleRS): 10 mM

B1: SgIleRS (Streptomyces griseus subsp. griseus NBRC 13350) (protein)
chain: T2 sequence (B1W0J8 1-1047)
notes: ileS from genomic DNA in pET28b, E. coli BL21(DE3), Ni-NTA purified (His tag), ZnCl2 added during growth
kcat [1]: 19.3 ± 0.4 s⁻¹
kcat [2]: 20.6 ± 1.4 s⁻¹

B2: ScIleRS (Saccharomyces cerevisiae S288C) (protein)
chain: T1 sequence (P09436 1-1072)
notes: pET28b, E. coli Rosetta(DE3), Ni-NTA (His tag) and size-exclusion chromatography, monomer
kcat [3]: 8.6 ± 1 s⁻¹
kcat [4]: 11.4 ± 0.8 s⁻¹
